Publication PMC3048872, “The Regulatory Subunit of PKA-I Remains Partially Structured and Undergoes β-Aggregation upon Thermal Denaturation” (PLoS ONE, 2011)

Target: the molecule itself
Assay: dynamic light scattering; thermally denatured RIα(92–381), soluble aggregates; 10 mM K-phosphate buffer, 50 mM KCl, pH 7.5; measured at 22 and 60°C

B1: human RIα(92–381), regulatory subunit RIα of cAMP-dependent protein kinase (PKA), truncated form with the tandem CNB domains A and B (domain or fragment, UniProt P10644 92-381, looked up)
chain: KGRRRRGAISAEVYTEEDAASYVRKVIPKDYKTMAALAKAIEKNVLFSHLDDNERSDIFDAMFSVSFIAGETVIQQGDEGDNFYVIDQGETDVYVNNEWATSVGEGGSFGELALIYGTPRAATVKAKTNVKLWGIDRDSYRRILMGSTLRKRKMYEEFLSKVSILESLDKWERLTVADALEPVQFEDGQKIVVQGEPGDEFFIILEGSAAVLQRRSENEEFVEVGRLGPSDYFGEIALLMNRPRAATVVARGPLKCVKLDRPRFERVLGPCSDILKRNIQQYNSFVSLSV
notes: cAMP-dependent protein kinase type I-alpha regulatory subunit (RIα), human, residues 92-381, numbering according to Swiss-Prot P10644; lacks the N-terminal docking/dimerization domain; In the aggregation experiments the protein was thermally denatured; the self-association is that of the partly unfolded, non-native state; also called apo-RIα(92–381); wt RIα(92–381); source: E. coli BL21 (DE3) …
- binding result: binds
